Experimental data published in patent publication US20220281969A1 (ANTLERA THERAPEUTICS, published 2022).

Biological target: T1, recombinant human LRP6-Fc chimera (human, UniProt O75581 20-1370)
T1 construct: extracellular domain; also called human LRP6 chimera; not shown: Fc part of the chimera
T1 sequence (looked up): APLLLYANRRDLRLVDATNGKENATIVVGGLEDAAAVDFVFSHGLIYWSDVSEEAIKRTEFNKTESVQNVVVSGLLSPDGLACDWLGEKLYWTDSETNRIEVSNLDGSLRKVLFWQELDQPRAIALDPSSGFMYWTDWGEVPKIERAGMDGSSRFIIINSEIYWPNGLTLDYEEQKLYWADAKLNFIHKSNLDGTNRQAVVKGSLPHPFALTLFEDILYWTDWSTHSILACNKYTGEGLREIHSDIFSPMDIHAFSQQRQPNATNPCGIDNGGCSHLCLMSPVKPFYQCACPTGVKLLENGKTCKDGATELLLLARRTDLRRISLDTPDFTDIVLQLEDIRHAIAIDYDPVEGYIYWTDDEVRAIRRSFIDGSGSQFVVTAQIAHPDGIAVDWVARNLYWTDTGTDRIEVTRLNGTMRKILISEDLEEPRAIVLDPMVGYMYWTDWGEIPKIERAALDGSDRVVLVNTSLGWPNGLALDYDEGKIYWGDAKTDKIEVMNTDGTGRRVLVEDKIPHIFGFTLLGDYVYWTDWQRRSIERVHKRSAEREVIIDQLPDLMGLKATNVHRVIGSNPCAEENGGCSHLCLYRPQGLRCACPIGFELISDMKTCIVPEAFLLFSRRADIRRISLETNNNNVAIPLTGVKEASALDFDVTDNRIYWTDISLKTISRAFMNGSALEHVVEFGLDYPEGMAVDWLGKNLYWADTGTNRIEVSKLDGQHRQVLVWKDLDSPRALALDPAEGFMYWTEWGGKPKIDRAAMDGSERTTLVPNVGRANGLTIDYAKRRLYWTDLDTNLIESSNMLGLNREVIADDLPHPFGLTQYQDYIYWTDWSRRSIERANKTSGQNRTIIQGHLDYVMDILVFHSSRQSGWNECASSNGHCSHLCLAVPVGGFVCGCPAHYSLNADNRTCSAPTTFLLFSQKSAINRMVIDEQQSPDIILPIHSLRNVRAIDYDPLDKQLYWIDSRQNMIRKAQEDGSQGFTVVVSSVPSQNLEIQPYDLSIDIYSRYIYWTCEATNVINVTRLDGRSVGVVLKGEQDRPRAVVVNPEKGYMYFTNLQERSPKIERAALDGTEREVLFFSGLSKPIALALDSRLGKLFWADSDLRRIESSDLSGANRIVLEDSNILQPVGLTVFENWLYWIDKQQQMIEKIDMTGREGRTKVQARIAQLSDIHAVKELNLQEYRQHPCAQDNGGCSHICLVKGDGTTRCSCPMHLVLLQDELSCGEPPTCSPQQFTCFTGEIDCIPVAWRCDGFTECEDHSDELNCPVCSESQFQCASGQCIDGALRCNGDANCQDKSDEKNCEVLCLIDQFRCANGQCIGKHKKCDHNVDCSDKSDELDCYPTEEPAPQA
Experiment: single-point ELISA, IgG1 on coated antigen
Experimental: FIGS. 1a and 1b show LRP six antibodies. (A) The amino acid sequences of the complementarity determining regions (CDR) of the heavy (H) and the light (L) chains are presented. The antibodies were grouped into unique epitopes as determined by competitive ELISAs. (B) Single-point ELISAs were performed on 96-well Maxisorb immune plates coated with the […] of mouse LRP5, mouse LRP6 and human LRP6 chimeras. The plates were incubated with the purified Fab or IgG1 at the concentrations indicated followed by incubation with horseradish peroxidase (HRP)-conjugated anti-kappa antibody. The wells were washed eight times followed by incubation with 3,3′,5,5′-tetramethylbenzidine/H₂O₂ peroxidase (TMB) substrate for 5-10 min. The reaction was stopped by adding one M H₃PO₄ and the absorbance was measured spectrometrically at 450 nm in a microtiter plate reader.
The full length IgG1s were purified and a single-point ELISA was done to determine the specificity of the antibodies. […] A multipoint competitive ELISA was used to determine the relative affinities of the antibodies to the recombinant antigen.

B1: LRP6-E3 IgG1 antibody (antibody, V domains shown)
VH: EVQLVESGGGLVQPGGSLRLSCAASGFNLYYYSMHWVRQAPGKGLEWVASIYSSYGYTYYADSVKGRFTISADTSKNTAYLQMNSLRAEDTAVYYCARYAGYYYYPWAYYGWPFSGLDYWGQGTLVTVSS
VL: DIQMTQSPSSLSASVGDRVTITCRASQSVSSAVAWYQQKPGKAPKLLIYSASSLYSGVPSRFSGSRSGTDFTLTISSLQPEDFATYYCQQAGSAPYHLITFGQGTKVEIKR
notes: Tested as purified full length IgG1
binding result: no binding
